Reference: paper PMC6110070

Experiments:
Lys65 = Lys65 (UniProt position 66, AAGANKVAVIK); conditions: Not stated. Ref 16 concerns affinity labelling of bL12 in situ on E. coli 70S ribosomes with a tRNA dialdehyde derivative.; cited from earlier work
[1] = biological target: recombinant E. coli ribosomal protein bL12 (L12), C-terminally His-tagged, as purified: (L7/L12)2 (E. coli) (UniProt P0A7K2); assay: SEC; Superdex 75 column, elution followed at 280 nm and 260 nm, column calibrated with protein markers; apparent molecular weight about 50 kDa; oligomer of 13 kDa chains

stoichiometry N [1]	Substance	pKa (Lys65)
	50S ribosomal protein bL12 (L7/L12) (Escherichia coli)	7.2
4	recombinant E. coli ribosomal protein bL12 (L12), C-terminally His-tagged, as purified: (L7/L12)2 (from UniProt P0A7K2 1-121; P0A7K2 1-121) (natural protein)	
